A short description of series [1]: Bioavailability of FITC-labeled SOCS3 recombinant proteins after IV injection (PBMCs, splenocytes, hepatocytes, tissue sections). Type of series: in vivo, ICR mice. The method, then: To investigate BA of the iCP-SOCS3 (HM165S3B) recombinant proteins, ICR mice (Doo-Yeol Biotech Co. Ltd., Seoul, Korea) were intravenous (IV) injected with 600 μg/head of 10 μM FITC (Fluorescein isothiocyanate, SIGMA, USA)-labeled SOCS3 recombinant proteins (HS3B, HM165S3B) and after 15 min, 30 min, 1H, 2H, 4H, 8H, 12H, 16H, 24H, 36H, 48H, mice of each group were sacrificed. From the mice, peripheral blood mononuclear cells (PBMCs), splenocytes, and hepatocytes were separated.
Further, the spleen was removed and washed with PBS, and then placed on a dry ice and embedded in an O.C.T. compound (Sakura). After cryosectioning at 20 μm, tissue distributions of fluorescence-labeled-SOCS3 proteins in different organs was analyzed by fluorescence microscopy (Carl Zeiss, Gottingen, Germany).
After anesthesia with ether, ophthalmectomy was performed and the blood was collected therefrom using a 1 ml syringe. The collected blood was immediately put in an EDTA tube and mixed well. The blood was centrifuged at 4,000 rpm and 4° C. for 5 minutes, and plasma was discarded and only buffy coat was collected in a new microtube. 0.5 ml of RBC lysis buffer (Sigma) was added thereto, followed by vortexing. The microtube was left at room temperature for 5 minutes, and then centrifuged at 4,000 rpm and 4° C. for 5 minutes. 0.3 ml of PBS was added to a pellet, followed by pipetting and flow cytometry (FlowJo cytometric analysis software, Guava, Millipore, Darmstadt, Germany).
Mice were laparotomized and the spleen or liver were removed. The spleen or liver thus removed was separated into single cells using a Cell Strainer (SPL, Korea). These cells were collected in a microtube, followed by centrifugation at 4,000 rpm and 4° C. for 5 minutes. 0.5 ml of RBC lysis buffer was added thereto, followed by vortexing. The microtube was left at room temperature for 5 minutes, and then centrifuged at 4,000 rpm and 4° C. for 5 minutes. 0.5 ml of PBS was added to a pellet, followed by pipetting and flow cytometry (FlowJo cytometric analysis software, Guava, Millipore, Darmstadt, Germany).

Series [2] has as its system tumor tissues (Hep3B CDX, HepG2 CDX). Kind of series: Biomarker expression in xenograft tumor tissues (RT-PCR, Western blotting, IHC). Type of series: in vivo, Balb/c nu/nu mice. The method, then: Tumor tissues were finely minced using a homogenizer according to the manufacturer's protocol of Hybrid-R (geneall, Korea), and then mRNA was isolated therefrom. 1 ug of mRNA thus separated was used to synthesize cDNA using an Accupower RT Premix (Bioneer, Korea). PCR was performed using 2 ul of cDNA and the primers of Table 45. PCR was performed using an Accupower PCR Premix (Bioneer, Korea) for 30 cycles consisting of denaturing (95° C.), annealing (60° C.), and extending (72° C.) for 45 seconds each.
Immunohistochemistry (IHC) Tissue samples were fixed in 4% Paraformaldehyde (Duksan, South Korea) for 3 days, dehydrated, cleared with xylene and embedded in Paraplast. Sections (6 μm thick) of tumor were placed onto poly-L-lysine coated slides. To block endogenous peroxidase activity, sections were incubated for 15 min with 3% H2O2 in methanol. After washing three times with PBS, slides were incubated for 30 min with blocking solution (5% fetal bovine serum in PBS). Mouse anti-Bax antibody (sc-7480, Santa Cruz Biotechnology, SantaCruz, Calif., USA) and rabbit anti-VEGF (ab46154, Abcam, Cambridge, UK) were diluted 1:1000 (to protein concentration 0.1 μg/ml) in blocking solution, applied to sections, and incubated at 4° C. for 24 hrs. After washing three times with PBS, sections were incubated with biotinylated mouse and rabbit IgG (Vector Laboratories, Burlingame, Calif., USA) at a 1:1000 dilution for 1 hr at room temperature, then incubated with avidin-biotinylated peroxidase complex using a Vectorstain ABC Kit (Vector Laboratories, Burlingame, Calif., USA) for 30 min at room temperature. After the slides are reacted with oxidized 3, 3-diaminobenzidine as a chromogen, they were counterstained with Harris hematoxylin (Sigma-Aldrich, USA). Permanently mounted slides were observed and photographed using a microscope equipped with a digital imaging system (ECLIPSE Ti, Nikon, Japan).
mRNA levels were analyzed using the tumor tissues removed at 2 weeks (Hep3B CDX, day 35) or 3 weeks (HepG2 CDX, day 42) after termination of drug administration to analyze changes in expressions of major biomarker genes by iCP-SOCS3.
Further, tumors removed at 2 weeks (Hep3B CDX, day 35) or 3 weeks (HepG2 CDX, day 42) after termination of drug administration were used to perform Western blotting and IHC, and increase or decrease in the expressions of cancer activity regulating factors by iCP-SOCS3 was observed.
(Immunoblotting shows a protein as a band on a membrane.)

The next series has as its system RAW 264.7 cells. Briefly: Cell-permeability of FITC-labeled SOCS3 recombinant proteins (flow cytometry). It is filed as cell-based. The protocol:
To examine cell-permeability of SOCS3 recombinant protein, SOCS3 recombinant proteins were conjugated to 5/6-fluorescein isothiocyanate (FITC). RAW 264.7 (KCLB, Seoul, South Korea) (FIG. 20) or NIH3T3 cells (KCLB, Seoul, South Korea) (FIG. 21) were treated with 10 μM FITC-labeled SOCS3 recombinant proteins and cultivated for 1 hr at 37° C.
In this regard, RAW 264.7 cells were cultured in a DMEM medium containing 10% fetal bovine serum (FBS, Hyclone, USA) and […] of 1% penicillin/streptomycin (Hyclone, USA).
After cultivation, the cells were washed three times with ice-cold PBS (Phosphate-buffered saline, Hyclone, USA) and treated with proteinase K (10 μg/mL, SIGMA, USA) to remove surface-bound proteins, and internalized proteins were measured by flow cytometry (FlowJo cytometric analysis software, Guava, Millipore, Darmstadt, Germany). Untreated cells (gray) and equimolar concentration of unconjugated FITC (FITC only, green)-treated cells were served as control (FIG. 20). Each of NIH3T3 cells was incubated for 1 hour at 37° C. with 10 μM FITC-labeled SOCS3 protein. For nuclear staining, a mixture of […] Mounting Medium (Vector laboratories, Burlingame, Calif.) and DAPI (4′,6-diamidino-2-phenylindole) was added to NIH3T3 cells, and visualized using a confocal laser microscope (LSM700, Zeiss, Germany) (FIG. 21).
(In flow cytometry, cells or beads pass a laser one at a time.)

Where [3] appears, read: IV 600 μg/head FITC-labeled protein.
Setting [4] is: day 35 (Hep3B CDX) or day 42 (HepG2 CDX).

Entries after “also recorded” stand apart in the source; their conditions may differ. Where only a bound is given, the exact number is not on record here.

Here are results for 1 molecule from patent US10385103B2, “Cell-permeable (ICP)-SOCS3 recombinant protein and uses thereof” (CELLIVERY THERAPEUTICS, INC., priority 2014, dated 2019).

B1: HM165S3B: His-tagged recombinant protein of aMTD165, human SOCS3 and solubilization domain B; prototype improved cell-permeable SOCS3 (protein)
chain: MGSSHHHHHHSSGLVPRGSHMALAVPVALAIVPVTHSKFPAAGMETSRPLDTSLRLKTFSSKSEYQLVVNAVRKLQESGFYWSAVTGGEANLLLSAEPAGTFLIRDSSDQRHFFTLSVKTQSGTKNLRIQCEGGSFSLQSDPRSTQPVPRFDCVLKLVHHYMETPPPGAPSFPSPPTEPSSEVPEQPSAQPLPGSPPRRAYYIYSGGEKIPLVLSRPLSSNVATLQHLCRKTVNGHLDSYEKVTQLPGPIREFLDQYDAPLGSMAEQSDKDVKYYTLEEIQKHKDSKSTWVILHHKVYDLTKFLEEHPGGEEVLGEQAGGDATENFEDVGHSTDARELSKTYIIGELHPDDRSKIAKPSETL
modifications: Amino acid sequence of HM165S3B
Consider B1, for which, in series [1] (IV), the “time maintained in tissues, depending on the tissues” value lay within 8 to 16 h and the “time of delivery from blood to various tissues” value is at most 2 h. In series [1] (setting [3]), the “distribution in pancreas tissue maintained up to” value was “up to 8 hours”, the “permeability in hepatocytes maintained up to” value is given as “up to 16 hours”, the “permeability in splenocytes maintained up to” value is “up to 16 hours” and the “time of maximum permeability in PBMCs” value turned out to be 30 min. Further, in series [1] (setting [3]), the “time of maximum permeability in hepatocytes” value worked out at 15 min, the “time of maximum permeability in splenocytes” value was 2 h and the “time of very high distribution in pancreas tissue” value was determined as 2 h. Also, in series [2] (Western blotting and IHC), the “expression of Bax in tumor tissues” value was “increased”, the “expression of Bcl-2 in tumor tissues” value is given as “decreased”, the “expression of VEGF in tumor tissues” value is “remarkably decreased” and the “expression of p21 in tumor tissues” value is recorded as “increased”. In series [2] (setting [4]), the “expression of GOLPH2 in tumor tissues” value is given as “remarkably reduced” and the “mRNA expressions of Bax, cyclinD1, cyclinE, PCNA, VEGF, FAK-related genes in tumor tissues” value is recorded as “significantly regulated”. Further, the dose-dependency of cell-permeability result with RAW 264.7 cells (0.05 μM~10 μM, 1 hrs) was “dose-dependent”. Besides, the “cell-permeability (protein uptake)” value in the series on RAW 264.7 cells (10 μM FITC-labeled protein, 1 hr, 37° C.) was “efficiently entered the cells; also recorded: very efficient; also recorded: showed the highest cell-permeability; also recorded: high cell permeability”. In addition, the time-dependency of cell-permeability result with RAW 264.7 cells (10 μM, 5~180 minutes) is “high level of cell-permeability of iCP-SOCS3 was observed only 5 minutes post-treatment and could be seen even at 180 minutes mark”.
